Settings in all cases: both partners purified
Test [1] deals with T1, terbium-labeled core RNA polymerase (E. coli, UniProt P0A7Z4 1-329; P0A8V2 1-1342; P0A8T7 1-1407; P0A800 1-91, CS124-DTPA-Phe-NCS-Tb-chelate on randomly labeled lysine residues of core RNAP, 1:1 ratio of Tb-chelate to molecule of core; which subunit is not told | CS124-DTPA-Phe-NCS-Tb-chelate on randomly …).
T1 construct: E. coli RNA polymerase α subunit; E. coli RNA polymerase β subunit; E. coli RNA polymerase β' subunit; E. coli RNA polymerase ω subunit; also called Tb-core; Tb-core RNAP; copies: 2 + 1 + 1 + 1
Briefly: FRET or BRET; LRET saturation binding, homogeneous; fluorescein-sigma serially diluted, 10 nM Tb-core; TG (50 mM Tris-HCl pH 7.9, 5% glycerol) + 100 mM NaCl; 1 h at 22°C; [core]0 set at 5 nM in the fit.

Test [2] addresses T1, terbium-labeled core RNA polymerase. Briefly: FRET or BRET; LRET saturation binding, homogeneous; fluorescein-sigma serially diluted, 10 nM Tb-core; TG (50 mM Tris-HCl pH 7.9, 5% glycerol) + 500 mM NaCl; 1 h at 22°C; [core]0 set at 5 nM in the fit.
The target is the same in test [3]. Put plainly: FRET or BRET; LRET saturation binding, homogeneous; fluorescein-sigma serially diluted, 10 nM Tb-core; TG (50 mM Tris-HCl pH 7.9, 5% glycerol) + 250 mM KGlu; 1 h at 22°C; [core]0 set at 5 nM in the fit.
For test [4] the target is unchanged. Briefly: FRET or BRET; LRET saturation binding, homogeneous; fluorescein-sigma serially diluted, 10 nM Tb-core; TG (50 mM Tris-HCl pH 7.9, 5% glycerol) + 500 mM KGlu; 1 h at 22°C; [core]0 set at 5 nM in the fit.
The target is the same in test [5]. Put plainly: FRET or BRET; LRET saturation binding, homogeneous; fluorescein-sigma serially diluted, 10 nM Tb-core; TG (50 mM Tris-HCl pH 7.9, 5% glycerol) + 100 mM KGlu; 1 h at 22°C; [core]0 set at 5 nM in the fit.
The target is the same in test [6]. Put plainly: FRET or BRET; LRET saturation binding, homogeneous; fluorescein-sigma serially diluted, 10 nM Tb-core; TG (50 mM Tris-HCl pH 7.9, 5% glycerol) + 250 mM NaCl; 1 h at 22°C; [core]0 set at 5 nM in the fit.

This passage reports Kd results from article PMC2715106 (PLoS ONE, 2009).

T1 sequence (P0A7Z4 whole entry, chain 1 of 4): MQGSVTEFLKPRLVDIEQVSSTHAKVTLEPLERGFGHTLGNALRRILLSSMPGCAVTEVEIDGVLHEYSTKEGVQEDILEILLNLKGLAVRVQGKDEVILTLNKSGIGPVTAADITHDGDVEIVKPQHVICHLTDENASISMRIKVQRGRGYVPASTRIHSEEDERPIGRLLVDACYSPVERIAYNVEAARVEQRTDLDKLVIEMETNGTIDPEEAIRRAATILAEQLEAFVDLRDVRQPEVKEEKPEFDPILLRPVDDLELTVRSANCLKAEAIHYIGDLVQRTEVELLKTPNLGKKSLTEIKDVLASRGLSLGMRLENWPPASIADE
T1 sequence (P0A8V2 whole entry, chain 2 of 4): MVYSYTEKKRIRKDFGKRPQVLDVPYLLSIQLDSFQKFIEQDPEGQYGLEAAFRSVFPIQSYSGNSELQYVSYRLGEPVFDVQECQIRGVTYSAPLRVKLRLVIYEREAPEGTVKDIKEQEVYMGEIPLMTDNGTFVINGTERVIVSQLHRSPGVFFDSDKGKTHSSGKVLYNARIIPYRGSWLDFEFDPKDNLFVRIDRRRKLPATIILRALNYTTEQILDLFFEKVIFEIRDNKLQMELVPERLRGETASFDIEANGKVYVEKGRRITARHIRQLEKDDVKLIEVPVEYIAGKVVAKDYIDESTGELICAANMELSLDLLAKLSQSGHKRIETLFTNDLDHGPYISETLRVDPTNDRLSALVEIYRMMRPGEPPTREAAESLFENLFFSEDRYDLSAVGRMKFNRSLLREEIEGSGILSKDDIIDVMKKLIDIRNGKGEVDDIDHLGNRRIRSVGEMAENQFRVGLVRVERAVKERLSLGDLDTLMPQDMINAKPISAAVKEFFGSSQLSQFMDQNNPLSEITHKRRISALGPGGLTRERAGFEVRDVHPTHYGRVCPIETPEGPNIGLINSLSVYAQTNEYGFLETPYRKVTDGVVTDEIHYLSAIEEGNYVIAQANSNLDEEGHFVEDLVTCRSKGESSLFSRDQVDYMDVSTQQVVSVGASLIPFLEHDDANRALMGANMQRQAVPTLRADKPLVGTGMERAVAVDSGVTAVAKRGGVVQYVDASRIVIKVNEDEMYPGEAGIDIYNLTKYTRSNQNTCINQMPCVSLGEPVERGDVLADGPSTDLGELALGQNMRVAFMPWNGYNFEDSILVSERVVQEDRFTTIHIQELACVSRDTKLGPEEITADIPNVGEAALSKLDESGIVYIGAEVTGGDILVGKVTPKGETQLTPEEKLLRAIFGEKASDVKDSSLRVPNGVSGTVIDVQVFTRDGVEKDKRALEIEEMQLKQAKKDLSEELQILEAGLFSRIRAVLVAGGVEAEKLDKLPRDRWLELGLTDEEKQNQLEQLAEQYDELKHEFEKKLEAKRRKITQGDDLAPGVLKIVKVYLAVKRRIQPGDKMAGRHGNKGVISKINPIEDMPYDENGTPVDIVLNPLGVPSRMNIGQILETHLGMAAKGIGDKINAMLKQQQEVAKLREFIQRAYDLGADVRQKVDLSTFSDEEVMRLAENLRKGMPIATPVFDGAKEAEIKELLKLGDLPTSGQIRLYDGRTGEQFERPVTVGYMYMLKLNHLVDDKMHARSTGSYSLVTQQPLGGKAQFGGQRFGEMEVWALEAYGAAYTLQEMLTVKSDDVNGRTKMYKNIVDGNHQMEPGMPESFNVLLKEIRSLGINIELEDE
T1 sequence (P0A8T7 whole entry, chain 3 of 4): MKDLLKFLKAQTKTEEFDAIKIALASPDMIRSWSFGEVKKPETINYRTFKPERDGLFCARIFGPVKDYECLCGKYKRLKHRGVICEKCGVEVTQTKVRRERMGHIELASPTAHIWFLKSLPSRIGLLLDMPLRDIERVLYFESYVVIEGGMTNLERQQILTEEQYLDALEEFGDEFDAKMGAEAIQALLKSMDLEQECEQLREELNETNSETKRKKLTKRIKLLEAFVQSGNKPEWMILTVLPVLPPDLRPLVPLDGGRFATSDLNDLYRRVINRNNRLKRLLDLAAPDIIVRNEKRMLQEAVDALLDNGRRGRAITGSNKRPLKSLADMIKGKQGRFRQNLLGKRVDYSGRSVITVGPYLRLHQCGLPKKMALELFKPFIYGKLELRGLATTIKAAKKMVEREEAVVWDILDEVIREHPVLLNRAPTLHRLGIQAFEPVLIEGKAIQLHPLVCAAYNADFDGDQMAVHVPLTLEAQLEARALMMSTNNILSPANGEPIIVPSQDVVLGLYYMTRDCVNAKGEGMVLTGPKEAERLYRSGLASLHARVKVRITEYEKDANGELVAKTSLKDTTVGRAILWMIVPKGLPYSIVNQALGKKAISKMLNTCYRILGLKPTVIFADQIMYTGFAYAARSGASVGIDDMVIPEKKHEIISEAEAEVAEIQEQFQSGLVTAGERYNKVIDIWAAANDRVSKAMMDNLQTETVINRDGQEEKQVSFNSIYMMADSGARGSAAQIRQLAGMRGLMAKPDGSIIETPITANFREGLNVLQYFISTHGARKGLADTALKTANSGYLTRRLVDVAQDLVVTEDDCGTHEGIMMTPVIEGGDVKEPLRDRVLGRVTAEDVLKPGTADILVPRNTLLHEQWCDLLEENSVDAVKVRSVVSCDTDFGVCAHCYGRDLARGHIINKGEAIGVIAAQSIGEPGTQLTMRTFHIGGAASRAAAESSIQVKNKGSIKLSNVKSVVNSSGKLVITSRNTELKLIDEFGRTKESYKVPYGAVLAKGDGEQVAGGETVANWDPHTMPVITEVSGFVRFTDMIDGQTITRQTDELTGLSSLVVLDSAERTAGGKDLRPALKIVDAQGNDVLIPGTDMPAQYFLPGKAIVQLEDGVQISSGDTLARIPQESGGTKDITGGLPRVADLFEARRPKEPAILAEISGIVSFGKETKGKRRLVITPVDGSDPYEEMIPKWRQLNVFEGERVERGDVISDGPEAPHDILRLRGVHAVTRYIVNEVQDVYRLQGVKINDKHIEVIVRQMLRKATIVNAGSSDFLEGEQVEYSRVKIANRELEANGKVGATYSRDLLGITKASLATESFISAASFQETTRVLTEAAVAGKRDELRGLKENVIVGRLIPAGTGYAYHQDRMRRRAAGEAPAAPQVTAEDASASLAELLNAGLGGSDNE
T1 sequence (P0A800 whole entry, chain 4 of 4): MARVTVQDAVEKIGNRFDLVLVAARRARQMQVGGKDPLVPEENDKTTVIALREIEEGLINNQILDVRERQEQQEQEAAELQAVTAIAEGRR

B1: fluorescein-σ32 (natural protein, E. coli, UniProt P0AGB3 1-284, looked up)
chain: MTDKMQSLALAPVGNLDSYIRAANAWPMLSADEERALAEKLHYHGDLEAAKTLILSHLRFVVHIARNYAGYGLPQADLIQEGNIGLMKAVRRFNPEVGVRLVSFAVHWIKAEIHEYVLRNWRIVKVATTKAQRKLFFNLRKTKQRLGWFNQDEVEMVARELGVTSKDVREMESRMAAQDMTFDLSSDDDSDSQPMAPVLYLQDKSSNFADGIEDDNWEEQAANRLTDAMQGLDERSQDIIRARWLDEDNKSTLQELADRYGVSAERVRQLEKNAMKKLRAAIEA
modifications: fluorescein on randomly labeled lysine residues, 2:1 ratio of fluorescein to molecule of protein
notes: E. coli heat shock sigma factor σ32 (RpoH); also called F-σ32; RpoH
With B1, the Kd in test [1] is 0.8 nM; in test [2], 2.4 nM; in test [3] it was 1.3 nM; in test [4], 2 nM; in test [5], 0.3 nM; in test [6], 0.6 nM.
